From US20210388087A1 (Chugai, published 2021)
Numbering of substitutions follows the chain as printed. Names may count otherwise.

T1: Human CD3eg linker (human)
T1 construct: single-chain construct; also called recombinant human CD3
T1 chain: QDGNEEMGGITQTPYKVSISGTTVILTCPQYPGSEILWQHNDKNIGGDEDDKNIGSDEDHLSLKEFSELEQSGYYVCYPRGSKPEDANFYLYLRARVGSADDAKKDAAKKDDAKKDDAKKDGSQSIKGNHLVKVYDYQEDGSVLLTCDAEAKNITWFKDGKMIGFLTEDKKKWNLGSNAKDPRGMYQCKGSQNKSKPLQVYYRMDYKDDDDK

B1: dBBDu183H D101N/dBBDu072L (antibody, name in Kabat numbering, V domains shown)
VH: QVQLVESGGGLVQPGRSLRLSCAASGFTFSNAWMHWVRQAPGKGLEWVAQIKDKGNAYAAYYAPSVKGRFTISRDDSKNSIYLQMNSLKTEDTAVYYCHYVHYASASTVLPAFGVNAWGQGTTVTVSS
VL: DIVMTQSPLSLPVTPGEPASISCQASQELVHMNRNTYLHWYQQKPGQAPRLLIYKVSNRFPGVPDRFSGSGSGTDFTLKISRVEAEDVGVYYCAQGTSVPFTFGQGTKLEIK
B2: dBBDu183H G65E/dBBDu072L (antibody, name in Kabat numbering, V domains shown)
VH: B1 VH with G68E, N116D
VL: B1 VL
B3: dBBDu183H G65D/dBBDu072L (antibody, name in Kabat numbering, V domains shown)
VH: B1 VH with G68D, N116D
VL: B1 VL
B4: dBBDu183H F100gY/dBBDu072L (antibody, name in Kabat numbering, V domains shown)
VH: B1 VH with F113Y, N116D
VL: B1 VL
B5: dBBDu183H G100hR/dBBDu072L (antibody, name in Kabat numbering, V domains shown)
VH: B1 VH with G114R, N116D
VL: B1 VL
B6: dBBDu183H G65F/dBBDu072L (antibody, name in Kabat numbering, V domains shown)
VH: B1 VH with G68F, N116D
VL: B1 VL
B7: dBBDu183H F100gK/dBBDu072L (antibody, name in Kabat numbering, V domains shown)
VH: B1 VH with F113K, N116D
VL: B1 VL
B8: dBBDu183H F100gE/dBBDu072L (antibody, name in Kabat numbering, V domains shown)
VH: B1 VH with F113E, N116D
VL: B1 VL
B9: dBBDu183H G65S/dBBDu072L (antibody, name in Kabat numbering, V domains shown)
VH: B1 VH with G68S, N116D
VL: B1 VL
B10: dBBDu183H F100gV/dBBDu072L (antibody, name in Kabat numbering, V domains shown)
VH: B1 VH with F113V, N116D
VL: B1 VL
B11: dBBDu183H F100gS/dBBDu072L (antibody, name in Kabat numbering, V domains shown)
VH: B1 VH with F113S, N116D
VL: B1 VL
B12: dBBDu183H F100gG/dBBDu072L (antibody, name in Kabat numbering, V domains shown)
VH: B1 VH with F113G, N116D
VL: B1 VL
B13: dBBDu183H G100hN/dBBDu072L (antibody, name in Kabat numbering, V domains shown)
VH: B1 VH with G114N, N116D
VL: B1 VL
B14: dBBDu183H D101S/dBBDu072L (antibody, name in Kabat numbering, V domains shown)
VH: B1 VH with N116S
VL: B1 VL
B15: dBBDu183H G100hQ/dBBDu072L (antibody, name in Kabat numbering, V domains shown)
VH: B1 VH with G114Q, N116D
VL: B1 VL
B16: dBBDu183H D101Q/dBBDu072L (antibody, name in Kabat numbering, V domains shown)
VH: B1 VH with N116Q
VL: B1 VL
B17: dBBDu183H F100gQ/dBBDu072L (antibody, name in Kabat numbering, V domains shown)
VH: B1 VH with F113Q, N116D
VL: B1 VL
B18: dBBDu183H F100gD/dBBDu072L (antibody, name in Kabat numbering, V domains shown)
VH: B1 VH with F113D, N116D
VL: B1 VL
B19: dBBDu183H D101Y/dBBDu072L (antibody, name in Kabat numbering, V domains shown)
VH: B1 VH with N116Y
VL: B1 VL
B20: dBBDu183H F100gR/dBBDu072L (antibody, name in Kabat numbering, V domains shown)
VH: B1 VH with F113R, N116D
VL: B1 VL
B21: dBBDu183H G65V/dBBDu072L (antibody, name in Kabat numbering, V domains shown)
VH: B1 VH with G68V, N116D
VL: B1 VL
B22: dBBDu183H F100gH/dBBDu072L (antibody, name in Kabat numbering, V domains shown)
VH: B1 VH with F113H, N116D
VL: B1 VL
B23: dBBDu183H G100hH/dBBDu072L (antibody, name in Kabat numbering, V domains shown)
VH: B1 VH with G114H, N116D
VL: B1 VL
B24: dBBDu183H G65Y/dBBDu072L (antibody, name in Kabat numbering, V domains shown)
VH: B1 VH with G68Y, N116D
VL: B1 VL
B25: dBBDu183H G65R/dBBDu072L (antibody, name in Kabat numbering, V domains shown)
VH: B1 VH with G68R, N116D
VL: B1 VL
B26: dBBDu183H G65K/dBBDu072L (antibody, name in Kabat numbering, V domains shown)
VH: B1 VH with G68K, N116D
VL: B1 VL
B27: dBBDu183H D101R/dBBDu072L (antibody, name in Kabat numbering, V domains shown)
VH: B1 VH with N116R
VL: B1 VL
B28: dBBDu183H G65Q/dBBDu072L (antibody, name in Kabat numbering, V domains shown)
VH: B1 VH with G68Q, N116D
VL: B1 VL
B29: dBBDu183H D101T/dBBDu072L (antibody, name in Kabat numbering, V domains shown)
VH: B1 VH with N116T
VL: B1 VL
B30: dBBDu183H F100gN/dBBDu072L (antibody, name in Kabat numbering, V domains shown)
VH: B1 VH with F113N, N116D
VL: B1 VL
B31: dBBDu183H G65W/dBBDu072L (antibody, name in Kabat numbering, V domains shown)
VH: B1 VH with G68W, N116D
VL: B1 VL
B32: dBBDu183H D101W/dBBDu072L (antibody, name in Kabat numbering, V domains shown)
VH: B1 VH with N116W
VL: B1 VL
B33: dBBDu183H G100hE/dBBDu072L (antibody, name in Kabat numbering, V domains shown)
VH: B1 VH with G114E, N116D
VL: B1 VL
B34: dBBDu183H F100gW/dBBDu072L (antibody, name in Kabat numbering, V domains shown)
VH: B1 VH with F113W, N116D
VL: B1 VL
B35: dBBDu183H G100hF/dBBDu072L (antibody, name in Kabat numbering, V domains shown)
VH: B1 VH with G114F, N116D
VL: B1 VL
B36: dBBDu183H G65H/dBBDu072L (antibody, name in Kabat numbering, V domains shown)
VH: B1 VH with G68H, N116D
VL: B1 VL
B37: dBBDu183H G100hK/dBBDu072L (antibody, name in Kabat numbering, V domains shown)
VH: B1 VH with G114K, N116D
VL: B1 VL
B38: dBBDu183H G65N/dBBDu072L (antibody, name in Kabat numbering, V domains shown)
VH: B1 VH with G68N, N116D
VL: B1 VL
B39: dBBDu183H F100gT/dBBDu072L (antibody, name in Kabat numbering, V domains shown)
VH: B1 VH with F113T, N116D
VL: B1 VL
B40: dBBDu183H G100hD/dBBDu072L (antibody, name in Kabat numbering, V domains shown)
VH: B1 VH with G114D, N116D
VL: B1 VL
B41: dBBDu183H G65T/dBBDu072L (antibody, name in Kabat numbering, V domains shown)
VH: B1 VH with G68T, N116D
VL: B1 VL
B42: dBBDu183H D101V/dBBDu072L (antibody, name in Kabat numbering, V domains shown)
VH: B1 VH with N116V
VL: B1 VL

Biological target: T1, Human CD3eg linker
Assay: SPR, vs unmutated H183/L072

| Binder | fold change of affinity [fold] |
| --- | --- |
| B1 | 1.1 |
| B2 | 1 |
| B3 | 1 |
| B4 | 1.2 |
| B5 | 0.4 |
| B6 | 0.9 |
| B7 | 1.7 |
| B8 | 0.5 |
| B9 | 1 |
| B10 | 1.2 |
| B11 | 1.4 |
| B12 | 1.2 |
| B13 | 0.8 |
| B14 | 0.6 |
| B15 | 0.4 |
| B16 | 0 |
| B17 | 1.3 |
| B18 | 0.3 |
| B19 | 0 |
| B20 | 3.4 |
| B21 | 1.2 |

| Binder | fold change of affinity [fold] |
| --- | --- |
| B22 | 1.8 |
| B23 | 1.5 |
| B24 | 1 |
| B25 | 1 |
| B26 | 1.1 |
| B27 | 0 |
| B28 | 1 |
| B29 | 0.2 |
| B30 | 0.9 |
| B31 | 1 |
| B32 | 0 |
| B33 | 0.5 |
| B34 | 0.9 |
| B35 | 0.4 |
| B36 | 0.9 |
| B37 | 0.3 |
| B38 | 0.9 |
| B39 | 1.3 |
| B40 | 0.5 |
| B41 | 1 |
| B42 | 0.5 |
